In the nanobody polyreactivity screen of Harvey et al. (2022):

Experiment: yeast display, Sf9 membrane polyspecificity reagent, FACS + sequencing; frameworks hold sequencing errors
Summary of the method: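 Synthetic nanobody libraries on Saccharomyces cerevisiae BJ5465 were galactose-induced for 36–48 hours, stained 1 hour at 4 °C with 10% biotinylated, detergent-solubilized Sf9 membrane reagent and enriched on streptavidin microbeads. FACS then separated cells into low and high (top ~1%) gates by anti-HA (expression) and streptavidin (reagent binding) fluorescence. Genes were colony-PCR amplified, MiSeq 2 × 250 sequenced and CDR-length filtered. A clone's polyreactivity label is that of its gate of origin.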

Sequence | polyreactivity (PSR sort gate)
QVQLVESGGGLVQAGGSLRLSCAASGRIFDGYAMGWYRQAPGKERELVATITGDGGSTYYADSVKGRFTISRDNAKNTVYLQMNSLKPEDTAVYYCAARLTRRLSWYLYNNDYWGQGTQVTVSS | high polyreactivity
QVQLVESGGGLVQAGGSLRLSCAASGRTFKRNAMGWYRQAPGKERELVAAISSDGRTNYADSVKGRFTISRDNAKNTVYLQMNSLKPEDTAVYYCAASYVLSYGTYYYWGQGTQVTVSS | low polyreactivity
QVQLVESGGGLFQEGGSLRISCAPSGSTFGGYVMGWYRQAPGKDRELVAAIRRVGRTYYADSVKGRFTISRDNAKNTVYLQINSLKAEVTAVYYFAADWAGWEGYRMDYWGQGTQVTVSS | low polyreactivity
QVQLVESVVGLVQAGGSLRLSCAASGSIFIENTMGWYRQAPGKERELVAAISGSVGRTFYADSVKGRFTISRDNAKNTVYLQMNSLKPEDTAVYYCAAVRRTSPGWVYYWGQGTRVTVSS | high polyreactivity
QVQLVESGGGLVQAGGSLRLSCAASGIIFHFNAMGWYRQAPGKERELVAAITSGANTNYADSVKGRFTISRDNAKNTVYLQMNSLKPEDTSVYYCATRPHTDVRFVRTRRYDYWGQGTQVTVSS | low polyreactivity
QVQLVESGGGLVQAGGSLRLSCAASGFYYYAMGWYRQAPGKERELVAVITYSGGSTYYADSVKGRFTISRDNAKNTVYLQMNSVKPEDTAVYYCAADYRPGYDYWGQGTQVTVSS | low polyreactivity
QVQLVESGGGLVQAGGSLRLSCAASGGIFPLYAMGWYRQAPGKERELVASITSGGSTYYADSVKGRFTISRDNAKNTVYLQMNSLKPEDTAVYYCAADLRITSYNSWGQGSQVTVSS | low polyreactivity
QVQLQESGGGLVQAGGSMRLSCAASGYFSNYYSMGLYRQAPGKERELVAGIGTGTSTYYADSVKGRFTISRDNAKNTVYQQMNSLKPEDTAVYYCAAPLDTSSRIFDYWGQGTQVTVSS | low polyreactivity
QVQLVESGGGLVQAGGSLRLSCAASGIILYYYAMGRYRPAPGKERELVASISRGDSTNYADSVKGRFTISRDNAKNTVYLQMNSLIPEDTAVYCNKDYLPSLYRGFDYWGQGTQVTVSS | low polyreactivity
QVQLVESGGGLVHAGGSLRLSCAASGRTFGKYAMGWYRQAPGKERELVAAISSGGTTYYADSVKGRFTISRDNAKNTVYLQMNSLKPEDTAVYYCAADPRYPYNYWGQGTQVTVSS | low polyreactivity
QVQLVESGGGLVQAGGSLRLSCAASGFIFYGNAMGWYRQAPGKVRELVAGISRSGGSTYYADSVKGRFTISRDNAKNTVSLQMNSLKPEDSAVYYCAASYWHRRYDYWGQGTQVTVSS | high polyreactivity
QVQLVESGGGLVQAGGSLRLSCAASGSIFPSYAMGWYRQAPGKERELVATISGSGTRTYYADSVKGRFTISRDNAKNTVYVQMNSLKPEDTAVYDCARLPPGDMDYWGQGTQVTVSS | low polyreactivity
QVQLVESGGGLVQAGGSLRLSCAASGPTFNRYTMGWYRQAPGKERELVATITGGGSTNYADSVKGRFTISRDNAKNTVYLQMNSLKPEDTAVYYCARAVVQSRGPPRYKTPYDYWGQGTQVTVSS | low polyreactivity
QVQLVESGGGLVQAGGSLRLSCAASGYIFGGYAMGWNRQAHGKERELVAGISIGVGSTYYADSVKGRFTISRDKAKNTVNLQMNSLKPEDTAVYYCNRDSVGYDYWGQGTQVTVSS | low polyreactivity
QVQLVESGGGLVQAGGILRLICAAYGRILAYNSMGWYRQAPGKQRELVAGISWSGGSTYYADSVKGRFTISRDNAKNTVYLQMNSLKPEDTAVYYCAKTPYYRYAKQRYTSSHDYWGQGTQVTVSS | high polyreactivity
QDQLVESGGGLVQAGGSLRLSCAASGSIFKHNDMGWYRQAPGKERELVAAISRSGGSTYYAHSVKGRFTISRDNAKNTVYLLMNSLKPEDTAVYYCNAGRRTARYGYWGQGTQVTVSS | high polyreactivity

Sequence | polyreactivity (PSR sort gate)
QVQLVESGGGLVQAGGILRLTCAASGRTFYKNAMGWYRQAPGKERELVAAIDWIDGNTYYADSVKGRFTISRDNAKNTVYLQMNSLKPEDTAVYYCAAEGYDLGDYWGQGTQVTVSS | low polyreactivity
QVQLVESGGGLVQAGGSLRLSCAASGRTFRRNAMGWYRQAPGKERELVASITGTGSTTYYADSVKGRFTISRDNAKNTVYLQMNSLKPEDTAVYYCAASSKYQDYWGQGTQVTVSS | high polyreactivity
QVQLVESGGGLVQAGGSLRLSCAASGFTFGAYAMGSYRQAPGKERELVASINWSGGSTYYADSVKGRFTISRDYAMNTVYFQMNRLKPEDTAVYYCAARESYPGYGYDHWGQGTQVTVSS | low polyreactivity
QVQLVESGGGLVQAGGSLRLSCAASGLTFHYYGMGWYRQAPGKERELVAAISSGGSTYYADSVKGRFTISRDNAKNTVYLQMNSLKPEDTAVYYCAASLAYWYRGHYDYWGQGTQVTVSS | low polyreactivity
QVQLVESGGGLVQAGGSLRLSCAASGINISYYAMGWYRQAPGKEREFVAAISWSVGSTYYADSVKGRFTISRDNAKYTVYLQMNSLKPEDTAVYYCAAEDGYWPTYYYWGQGSQVTVSS | high polyreactivity
QVQLVESGGGLVQAGGSLRLSCAASGRTFVRNAMGWYRQAPGKERELVAAISSIGDSTYYADSVKGRFTISRDNAKNTVYLQMNSLKPEDTAVYYWAAEWVTSYYNYYHWGQGTLVTVSS | low polyreactivity
QVQLVESGGGLVQAGGSLRLICAASGSTFGFNAMGWSRQAPGKERELLPLLWSGGSTYYADSVKGRFTISRDNAKNTVYLQMNSLIPEDTAVYYCNKDSPPITRYDYWGQGTQVTVSS | low polyreactivity
QVQLVESGGGLVQAGGSLRLSCAASGSTFGTYAMGWYRQAPGKERELVAAISNSGGSTYYADSVKGRFTISRDNAKNTVYLQMNSLKPEDTAVYYCNTDGLVRNGPFYSWGQGTQVTVSS | low polyreactivity
QVQLVESGGGLVQAGGSLRLSCAASGSTFAEYAMGWYREAPGKERELVADITWSGGSTYYADSVKGRFTISRDNAKNTVYLQMNSLKPDDTAVYYCYFWPVFYDFYLYGYWGQGTQVTVSS | low polyreactivity
QVQLVESGGGLVQAGGSLRLSCAASGYTLDNYAMGWYRQAPGKERELVAGITFSGGSTFYADSVKGRFTISRDNAKNTVYLQMNSLKPEDTAVYYCAADAEFQADHKYGYWGQGSQVTVSS | low polyreactivity
QVQLVESGGGLVQAGGSLRLSCAASGFIFWINAMGWYRQAPGKERELVAAITKNGGTTYYADSVKGRFTISRDNAKNTVYLLMNSLKPEDTAVYYCAAGGIGGDQEVEGPMNYWGQGTQVTVSS | low polyreactivity
QAELVESGGGLVQAGGSLRLSCAASGLTFRAYAMGWYRQAPGKERELVAAISWNGGSTYYADSVKGRFTISRDNAKNTVYLQMNSLKPEDTAVYYCNAYDYQYFYGYEYDYWGQGTQVTVSS | high polyreactivity
QVQLVESGGGLVQAGGSLRLSCAASGSIFYSNAMGWYRQAPGKERELVADISWSDGSTYYADSVKGRFTISRDNAKNNVYLQMNSLKPEDTAVYYCARKAGYSYFRRYDYWGQGTQVTVSS | low polyreactivity
QVQLVESGGGLVQAGGSLRLRCAASGSIFSRNAMGWYRQAPGKERELVAAISGRGGSTYYADSVKGRFTISRDNAMNTVYLQMNRLKPEDTAVYYCAKAVIYRLSEAMDYWGQGSQVTVSS | high polyreactivity
QVQLVESGGGLVQAGGSLRLSCAASGGIFDRYAMGWSRQAPGKERELVAVISGSVNTYADSVKGRFTISRDNAKNTFYLQMNSLKPEDTAVYYCATQFEGTSGFNYWGQGTQVTVSS | low polyreactivity
QVQLVESGGGLVQAGGSLRLSCAASGNILFNNSMGWYRQAPGKERELVAAISRSAGSTYYADSVKGSFTISRDNEKNTVYLQMNRLKPEDTAVYYCAAQYFRRSGYWGQGTQVTVSS | high polyreactivity
